Laboratory results taken from US11555213B2, “Nucleic acid encoding a modified homoserine dehydrogenase” (CJ CHEILJEDANG CORPORATION, priority 2018, dated 2023).
Residue numbers refer to the chain shown, from its start. Names and notes keep the numbering of the source.

B1: T285I: Hom (SEQ ID NO: 10), threonine at position 285 mutated to isoleucine (protein)
chain: MTSASAPSFNPGKGPGSAVGIALLGFGTVGTEVMRLMTEYGDELAHRIGGPLEVRGIAVSDISKPREGVAPELLTEDAFALIEREDVDIVVEVIGGIEYPREVVLAALKAGKSVVTANKALVAAHSAELADAAEAANVDLYFEAAVAGAIPVVGPLRRSLAGDQIQSVMGIVNGTTNFILDAMDSTGADYADSLAEATRLGYAEADPTADVEGHDAASKAAILASIAFHTRVTADDVYCEGISNISAADIEAAQQAGHTIKLLAICEKFTNKEGKSAISARVHPILLPVSHPLASVNKSFNAIFVEAEAAGRLMFYGNGAGGAPTASAVLGDVVGAARNKVHGGRAPGESTYANLPIADFGETTTRYHLDMDVEDRVGVLAELASLFSEQGISLRTIRQEERDDDARLIVVTHSALESDLSRTVELLKAKPVVKAINSVIRLERD
modifications: Hom (KFCC10881-1)
B2: R398Q: Hom (SEQ ID NO: 11), arginine at position 398 mutated to glutamine (protein)
chain: B1 chain with I285T, R398Q
modifications: Hom (KFCC10881-14)
B3: G378W: Hom (SEQ ID NO: 12), glycine at position 378 mutated to tryptophan (protein)
chain: B1 chain with I285T, G378W
modifications: Hom (KFCC10881-19)
B4: G378S: Hom (SEQ ID NO: 13), glycine at position 378 mutated to serine (protein)
chain: B1 chain with I285T, G378S
modifications: Hom (KFCC10881-22)

Test system: homoserine dehydrogenase (Hom)
Test: Measurement of activity of homoserine dehydrogenase in crude extracts, desensitization by L-threonine
Type: biochemical, Corynebacterium glutamicum
Settings: 10 mM L-threonine, unlike the wild-type Hom
Procedure: The activity of the enzyme Hom was measured in the prepared strains. The wild-type strain ATCC13032 in a control group and CTR-T285I, CTR-R398Q, CTR-G378W, and CTR-G378S prepared in Example 4 were inoculated into 25 mL of the seed medium, and then cultured until reaching the late log phase. The cells were recovered by centrifugation, washed twice with a 0.1 M potassium phosphate buffer (pH 7.6), and finally suspended in 2 mL of the same buffer containing glycerol at a concentration of 30%. The cell suspension was physically disrupted by a conventional glass bead vortexing method for 10 minutes, and then the supernatant was recovered through two centrifugations (13,000 rpm, 4° C., 30 minutes) and used as a crude extract for measuring the activity of the enzyme Hom. For the measurement of the activity of Hom, a coenzyme solution (0.1 mL) was added to a reaction solution for measuring the enzyme activity (a potassium phosphate (pH 7.0) buffer, 25 mM NADPH, 5 mM aspartate semi-aldehyde), and then reacted at 30° C. The Hom activity U was defined as the number of NADPH μmol consumed per minute according to the presence of L-threonine (0 mM, 10 mM), and the results of the enzyme activity are shown in Table 2 below.

Molecule	inhibition of Hom activity by L-threonine (desensitization)
B1	inhibition of the activity was reduced
B2	inhibition of the activity was reduced
B3	inhibition of the activity was reduced
B4	inhibition of the activity was reduced
